Here are results for 5 molecules from patent publication US20190201496A1 (published 2019).

Where two headings read alike, the source gives them in different places.

In general, Kd refers to the concentration at which binding is half-saturated. High values mean a looser complex, low ones a tighter complex.

Common to all, as to test: SPR; pH 6
Assay [1] has as its target T1, human β2-microglobulin (UniProt P61769 21-119).
The next assay addresses mβ2m.
The target of assay [2] is T1, human β2-microglobulin. This is another data set of the same source.
For another assay, the target named is T2, HLA-A2:01 (human, UniProt A*02:01, biotinylated (site not stated)).
T2 chain: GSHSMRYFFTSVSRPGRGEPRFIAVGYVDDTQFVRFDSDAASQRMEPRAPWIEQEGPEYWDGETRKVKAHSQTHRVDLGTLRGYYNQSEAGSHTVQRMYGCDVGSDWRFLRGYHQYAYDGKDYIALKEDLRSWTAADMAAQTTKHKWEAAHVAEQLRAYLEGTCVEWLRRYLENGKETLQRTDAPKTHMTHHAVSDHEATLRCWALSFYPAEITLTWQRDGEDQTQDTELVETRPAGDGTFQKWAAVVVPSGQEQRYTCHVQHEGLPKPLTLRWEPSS

T1 sequence (P61769 21-119): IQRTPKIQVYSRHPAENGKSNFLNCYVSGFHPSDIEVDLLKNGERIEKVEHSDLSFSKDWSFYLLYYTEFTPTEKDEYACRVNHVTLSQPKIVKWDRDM

B1: hAFP N-His (protein)
chain: RTLHRNEYGIASILDSYQCTAEISLADLATIFFAQFVQEATYKEVSKMVKDALTAIEKPTGDEQSSGCLENQLPAFLEELCHEKEILEKYGHSDCCSQSEEGRHNCFLAHKKPTPASIPLFQVPEPVTSCEAYEEDRETFMNKFIYEIARRHPFLYAPTILLWAARYDKIIPSCCKAENAVECFQTKAATVTKELRESSLLNQHACAVMKNFGTRTFQAITVTKLSQKFTKVNFTEIQKLVLDVAHVHEHCCRGDVLDCLQDGEKIMSYICSQQDTLSNKITECCKLTTLERGQCIIHAENDEKPEGLSPNLNRFLGDRDFNQFSSGEKNIFLASFVHEYSRRHPQLAVSVILRVAKGYQELLEKCFQTENPLECQDKGEEELQKYIQESQALAKRSCGLFQKLGEYYLQNAFLVAYTKKAPQLTSSELMAITRKMAATAATCCQLSEDKLLACGEGAADIIIGHLCIRHEMTPVNPGVGQCCTSSYANRRPCFSSLVVDETYVPPAFSDDKFIFHKDLCQAQGVALQTMKQEFLINLVKQKPQITEEQLEAVIADFSGLLEKCCQGQEQEVCFAEEGQKLISKTRAALGV
B1: the Kd in the assay with human β2-microglobulin [1] was 0.0969 µM. In other words, the double-digit nanomolar range.

B2: hAFP cord (ligand)
chain: B1 chain
On to B2, for which the affinity with mβ2m, expressed as Kd, was 0.167 µM.

B3: human AFP derived from cord blood (ligand)
chain: B1 chain
B3 displayed a Kd with human β2-microglobulin [1] of 0.193 µM.

B4: human alpha-fetoprotein (AFP) (ligand)
chain: B1 chain
In the assay with human β2-microglobulin [2], B4 had a Kd of 0.125 µM. In other words, the sub-micromolar range.

B5: AFP (ligand)
chain: B1 chain
In turn, B5 displayed a Kd with HLA-A2:01 of 0.0359 µM.
